Columns and labels:
[1] = system: T1, NC(=O)C1=CN([C@@H]2O[C@H](COP(=O)(O)OP(=O)(O)OC[C@H]3O[C@@H](n4cnc5c(N)ncnc54)[C@H](OP(=O)(O)O)[C@@H]3O)[C@@H](O)[C@H]2O)C=CC1; assay: cytochrome c reduction, A550; format: biochemical, Panax ginseng; conditions: 100 μmol/L cytochrome c, NADPH 0-400 μmol/L, 50 mmol/L Tris HCl pH 7.4, 0.1 mmol/L EDTA, 25 °C
T1 construct: pET28a, His-tag, E. coli BL21(DE3), Ni-NTA

[2] = system: NC(=O)C1=CN([C@@H]2O[C@H](COP(=O)(O)OP(=O)(O)OC[C@H]3O[C@@H](n4cnc5c(N)ncnc54)[C@H](OP(=O)(O)O)[C@@H]3O)[C@@H](O)[C@H]2O)C=CC1; assay: purified protein; conditions: 100 μmol/L cytochrome c, NADPH 0-400 μmol/L, 50 mmol/L Tris HCl pH 7.4, 0.1 mmol/L EDTA, 25 °C

Chain of PgCPR2 (Panax ginseng) (chain, as listed by the source): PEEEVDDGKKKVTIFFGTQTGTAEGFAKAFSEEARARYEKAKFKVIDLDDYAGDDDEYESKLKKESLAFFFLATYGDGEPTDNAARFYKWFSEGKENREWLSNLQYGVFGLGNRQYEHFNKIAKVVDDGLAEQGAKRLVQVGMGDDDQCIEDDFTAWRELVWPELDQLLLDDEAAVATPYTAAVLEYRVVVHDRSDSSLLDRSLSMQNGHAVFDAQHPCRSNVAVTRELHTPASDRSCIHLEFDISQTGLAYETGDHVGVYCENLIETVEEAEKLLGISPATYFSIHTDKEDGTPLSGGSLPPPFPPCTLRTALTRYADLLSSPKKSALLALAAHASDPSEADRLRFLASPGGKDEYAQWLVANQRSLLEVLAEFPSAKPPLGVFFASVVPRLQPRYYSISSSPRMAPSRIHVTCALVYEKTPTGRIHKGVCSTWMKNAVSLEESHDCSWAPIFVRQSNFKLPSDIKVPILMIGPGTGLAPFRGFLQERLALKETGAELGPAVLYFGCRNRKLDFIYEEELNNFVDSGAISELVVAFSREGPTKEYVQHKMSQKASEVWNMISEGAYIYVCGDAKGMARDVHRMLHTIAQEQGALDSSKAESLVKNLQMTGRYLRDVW
Chain of PgCPR1 (Panax ginseng) (chain, as listed by the source): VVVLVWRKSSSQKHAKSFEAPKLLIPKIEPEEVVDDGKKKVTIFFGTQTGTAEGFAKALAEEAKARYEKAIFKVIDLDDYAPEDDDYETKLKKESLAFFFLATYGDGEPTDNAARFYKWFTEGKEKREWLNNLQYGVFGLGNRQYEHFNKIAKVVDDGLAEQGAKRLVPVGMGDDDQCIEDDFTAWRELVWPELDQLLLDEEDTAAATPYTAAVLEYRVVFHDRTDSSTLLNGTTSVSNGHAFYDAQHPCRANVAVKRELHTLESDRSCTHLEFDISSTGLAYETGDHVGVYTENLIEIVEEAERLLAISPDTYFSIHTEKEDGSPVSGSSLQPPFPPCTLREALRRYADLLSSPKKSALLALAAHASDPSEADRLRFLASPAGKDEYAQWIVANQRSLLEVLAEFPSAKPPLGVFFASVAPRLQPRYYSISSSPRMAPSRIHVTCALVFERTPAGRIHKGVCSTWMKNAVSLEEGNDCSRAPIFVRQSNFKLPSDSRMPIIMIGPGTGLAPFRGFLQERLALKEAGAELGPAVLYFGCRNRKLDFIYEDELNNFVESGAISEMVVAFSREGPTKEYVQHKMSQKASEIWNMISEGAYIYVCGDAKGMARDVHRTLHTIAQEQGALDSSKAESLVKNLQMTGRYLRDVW

Substance: PgCPR2 (Panax ginseng)
- Km [1]: 85.27 ± 6.07 µM
- kcat [1]: 3.38 ± 0.087 s⁻¹
- kcat/Km [1]: 39600 M⁻¹ s⁻¹

Substance: AtCPR1 (Arabidopsis thaliana)
- Km [2]: 84.61 ± 8.548 µM
- kcat [2]: 2.74 s⁻¹
- kcat/Km [2]: 32400 M⁻¹ s⁻¹

Substance: PgCPR1 (Panax ginseng)
- Km [1]: 62.9 ± 5.807 µM
- kcat [1]: 3.32 ± 0.0968 s⁻¹
- kcat/Km [1]: 52800 M⁻¹ s⁻¹

Source: paper PMC8588036, “Molecular Cloning and Identification of NADPH Cytochrome P450 Reductase from Panax ginseng” (Molecules, 2021)
